Assay results as given in ChEMBL document CHEMBL4402607, “Molecular Basis for Omapatrilat and Sampatrilat Binding to Neprilysin-Implications for Dual Inhibitor Design with Angiotensin-Converting Enzyme” (J Med Chem, 2020).

Substrate: N=C(N)NCCC[C@H](NC(=O)[C@H](Cc1ccccc1)NC(=O)[C@@H]1CCCN1C(=O)[C@H](CO)NC(=O)[C@H](Cc1ccccc1)NC(=O)CNC(=O)[C@@H]1CCCN1C(=O)[C@@H]1CCCN1C(=O)[C@@H](N)CCCNC(=N)N)C(=O)O
Experiment: Substrate activity at human ACE expressed in CHO cells by HPLC analysis
Type: cell-based

B1: Angiotensin-converting enzyme (Homo sapiens), P12821 (protein)
chain: MGAASGRRGPGLLLPLPLLLLLPPQPALALDPGLQPGNFSADEAGAQLFAQSYNSSAEQVLFQSVAASWAHDTNITAENARRQEEAALLSQEFAEAWGQKAKELYEPIWQNFTDPQLRRIIGAVRTLGSANLPLAKRQQYNALLSNMSRIYSTAKVCLPNKTATCWSLDPDLTNILASSRSYAMLLFAWEGWHNAAGIPLKPLYEDFTALSNEAYKQDGFTDTGAYWRSWYNSPTFEDDLEHLYQQLEPLYLNLHAFVRRALHRRYGDRYINLRGPIPAHLLGDMWAQSWENIYDMVVPFPDKPNLDVTSTMLQQGWNATHMFRVAEEFFTSLELSPMPPEFWEGSMLEKPADGREVVCHASAWDFYNRKDFRIKQCTRVTMDQLSTVHHEMGHIQYYLQYKDLPVSLRRGANPGFHEAIGDVLALSVSTPEHLHKIGLLDRVTNDTESDINYLLKMALEKIAFLPFGYLVDQWRWGVFSGRTPPSRYNFDWWYLRTKYQGICPPVTRNETHFDAGAKFHVPNVTPYIRYFVSFVLQFQFHEALCKEAGYEGPLHQCDIYRSTKAGAKLRKVLQAGSSRPWQEVLKDMVGLDALDAQPLLKYFQPVTQWLQEQNQQNGEVLGWPEYQWHPPLPDNYPEGIDLVTDEAEASKFVEEYDRTSQVVWNEYAEANWNYNTNITTETSKILLQKNMQIANHTLKYGTQARKFDVNQLQNTTIKRIIKKVQDLERAALPAQELEEYNKILLDMETTYSVATVCHPNGSCLQLEPDLTNVMATSRKYEDLLWAWEGWRDKAGRAILQFYPKYVELINQAARLNGYVDAGDSWRSMYETPSLEQDLERLFQELQPLYLNLHAYVRRALHRHYGAQHINLEGPIPAHLLGNMWAQTWSNIYDLVVPFPSAPSMDTTEAMLKQGWTPRRMFKEADDFFTSLGLLPVPPEFWNKSMLEKPTDGREVVCHASAWDFYNGKDFRIKQCTTVNLEDLVVAHHEMGHIQYFMQYKDLPVALREGANPGFHEAIGDVLALSVSTPKHLHSLNLLSSEGGSDEHDINFLMKMALDKIAFIPFSYLVDQWRWRVFDGSITKENYNQEWWSLRLKYQGLCPPVPRTQGDFDPGAKFHIPSSVPYIRYFVSFIIQFQFHEALCQAAGHTGPLHKCDIYQSKEAGQRLATAMKLGFSRPWPEAMQLITGQPNMSASAMLSYFKPLLDWLRTENELHGEKLGWPQYNWTPNSARSEGPLPDSGRVSFLGLDLDAQQARVGQWLLLFLGIALLVATLGLSQRLFSIRHRSLHRHSHGPQFGSEVELRHS
  Km: 0.18 µM
